Results published in US20110091994A1, “Methods for Screening Compounds for Treating and/or Preventing an Hepatitis C Virus Infection” (priority 2008, published 2011).
Where two headings read alike, the source gives them in different places.

Tests used:
[1] = system: HCV ORFs (Gal4-DB fusions); format: binding, HCV genotype 1b, isolate con1; conditions: human protein listed by gene symbol; the value names the HCV protein it interacts with
[2] = target: T1, HCV ORFs (Gal4-DB fusions) (Hepatitis C virus genotype 1b, UniProt Q9WMX2); format: binding, HCV genotype 1b, isolate con1; conditions: human protein as prey
T1 construct: expressed in transfected cells; host or cells: Saccharomyces cerevisiae MAV203 (IMAP1) / AH109 (IMAP2)

HCV proteins = target: T2, HCV proteins (Hepatitis C virus genotype 1b, UniProt Q9WMX2); assay: Validation by Y2H pairwise matrices; format: binding;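 further: yeast two-hybrid pairwise tests of interactions first found in Y2H screens of HCV bait proteins against human cDNA libraries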
T2 construct: expressed in transfected cells

[3] = validation of interaction with HCV protein NS3
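Wherever IMAP Y2H IMAP1 (number of IST) is given: yeast two-hybrid screens using HCV genotype 1b proteins fused to Gal4-DB as baits against prey cDNA libraries from human spleen and foetal brain, IMAP1 via transformation and IMAP2 via mating.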
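Wherever Interaction with viral protein is given: yeast two-hybrid screens using HCV genotype 1b proteins fused to Gal4-DB as baits against prey cDNA libraries from human spleen and foetal brain, IMAP1 via transformation and IMAP2 via mating.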

B1: SPOCK3 (protein, UniProt Q9BQ16 22-436, looked up)
Testican-3: AAAAVAAAGGRSDGGNFLDDKQWLTTISQYDKEVGQWNKFRDEVEDDYFRTWSPGKPFDQALDPAKDPCLKMKCSRHKVCIAQDSQTAVCISHRRLTHRMKEAGVDHRQWRGPILSTCKQCPVVYPSPVCGSDGHTYSFQCKLEYQACVLGKQISVKCEGHCPCPSDKPTSTSRNVKRACSDLEFREVANRLRDWFKALHESGSQNKKTKTLLRPERSRFDTSILPICKDSLGWMFNRLDTNYDLLLDQSELRSIYLDKNEQCTKAFFNSCDTYKDSLISNNEWCYCFQRQQDPPCQTELSNIQKRQGVKKLLGQYIPLCDEDGYYKPTQCHGSVGQCWCVDRYGNEVMGSRINGVADCAIDFEISGDFASGDFHEWTDDEDDEDDIMNDEDEIEDDDEDEGDDDDGGDDHDVYI
Interaction with viral protein [1]: NS3
IMAP Y2H IMAP1 (number of IST) ([2]; HCV protein NS3 as bait): 1
Y2H matrices (HCV proteins; [3]): +

B2: SPON1 (protein, UniProt Q9HCB6 29-807, looked up)
Spondin-1: FSDETLDKVPKSEGYCSRILRAQGTRREGYTEFSLRVEGDPDFYKPGTSYRVTLSAAPPSYFRGFTLIALRENREGDKEEDHAGTFQIIDEEETQFMSNCPVAVTESTPRRRTRIQVFWIAPPAGTGCVILKASIVQKRIIYFQDEGSLTKKLCEQDSTFDGVTDKPILDCCACGTAKYRLTFYGNWSEKTHPKDYPRRANHWSAIIGGSHSKNYVLWEYGGYASEGVKQVAELGSPVKMEEEIRQQSDEVLTVIKAKAQWPAWQPLNVRAAPSAEFSVDRTRHLMSFLTMMGPSPDWNVGLSAEDLCTKECGWVQKVVQDLIPWDAGTDSGVTYESPNKPTIPQEKIRPLTSLDHPQSPFYDPEGGSITQVARVVIERIARKGEQCNIVPDNVDDIVADLAPEEKDEDDTPETCIYSNWSPWSACSSSTCDKGKRMRQRMLKAQLDLSVPCPDTQDFQPCMGPGCSDEDGSTCTMSEWITWSPCSISCGMGMRSRERYVKQFPEDGSVCTLPTEETEKCTVNEECSPSSCLMTEWGEWDECSATCGMGMKKRHRMIKMNPADGSMCKAETSQAEKCMMPECHTIPCLLSPWSEWSDCSVTCGKGMRTRQRMLKSLAELGDCNEDLEQVEKCMLPECPIDCELTEWSQWSECNKSCGKGHVIRTRMIQMEPQFGGAPCPETVQRKKCRIRKCLRNPSIQKLRWREARESRRSEQLKEESEGEQFPGCRMRPWTAWSECTKLCGGGIQERYMTVKKRFKSSQFTSCKDKKEIRACNVHPC
Interaction with viral protein [1]: NS3
IMAP Y2H IMAP1 (number of IST) ([2]; HCV protein NS3 as bait): 1
Y2H matrices (HCV proteins; [3]): +

B3: SNX4 (protein, UniProt O95219 1-450, looked up)
Sorting nexin-4: MEQAPPDPERQLQPAPLEPLGSPDAGLGAAVGKEAEGAGEESSGVDTMTHNNFWLKKIEISVSEAEKRTGRNAMNMQETYTAYLIETRSVEHTDGQSVLTDSLWRRYSEFELLRSYLLVYYPHIVVPPLPEKRAEFVWHKLSADNMDPDFVERRRIGLENFLLRIASHPILCRDKIFYLFLTQEGNWKETVNETGFQLKADSRLKALNATFRVKNPDKRFTDLKHYSDELQSVISHLLRVRARVADRLYGVYKVHGNYGRVFSEWSAIEKEMGDGLQSAGHHMDVYASSIDDILEDEEHYADQLKEYLFYAEALRAVCRKHELMQYDLEMAAQDLASKKQQCEELVTGTVRTFSLKGMTTKLFGQETPEQREARIKVLEEQINEGEQQLKSKNLEGREFVKNAWADIERFKEQKNRDLKEALISYAVMQISMCKKGIQVWTNAKECFSKM
Interaction with viral protein [1]: NS3
IMAP Y2H IMAP1 (number of IST) ([2]; HCV protein NS3 as bait): 1
Y2H matrices (HCV proteins; [3]): +

B4: SLIT3 (protein, UniProt O75094 34-1523, looked up)
Slit homolog 3 protein: CPTKCTCSAASVDCHGLGLRAVPRGIPRNAERLDLDRNNITRITKMDFAGLKNLRVLHLEDNQVSVIERGAFQDLKQLERLRLNKNKLQVLPELLFQSTPKLTRLDLSENQIQGIPRKAFRGITDVKNLQLDNNHISCIEDGAFRALRDLEILTLNNNNISRILVTSFNHMPKIRTLRLHSNHLYCDCHLAWLSDWLRQRRTVGQFTLCMAPVHLRGFNVADVQKKEYVCPAPHSEPPSCNANSISCPSPCTCSNNIVDCRGKGLMEIPANLPEGIVEIRLEQNSIKAIPAGAFTQYKKLKRIDISKNQISDIAPDAFQGLKSLTSLVLYGNKITEIVKGLFDGLVSLQLLLLNANKINCLRVNTFQDLQNLNLLSLYDNKLQTISKGLFAPLQSIQTLHLAQNPFVCDCHLKWLADYLQDNPIETSGARCSSPRRLANKRISQIKSKKFRCSGSEDYRSRFSSECFMDLVCPEKCRCEGTIVDCSNQKLVRIPSHLPEYVTDLRLNDNEVSVLEATGIFKKLPNLRKINLSNNKIKEVREGAFDGAASVQELMLTGNQLETVHGRVFRGLSGLKTLMLRSNLIGCVSNDTFAGLSSVRLLSLYDNRITTITPGAFTTLVSLSTINLLSNPFNCNCHLAWLGKWLRKRRIVSGNPRCQKPFFLKEIPIQDVAIQDFTCDGNEESSCQLSPRCPEQCTCMETVVRCSNKGLRALPRGMPKDVTELYLEGNHLTAVPRELSALRHLTLIDLSNNSISMLTNYTFSNMSHLSTLILSYNRLRCIPVHAFNGLRSLRVLTLHGNDISSVPEGSFNDLTSLSHLALGTNPLHCDCSLRWLSEWVKAGYKEPGIARCSSPEPMADRLLLTTPTHRFQCKGPVDINIVAKCNACLSSPCKNNGTCTQDPVELYRCACPYSYKGKDCTVPINTCIQNPCQHGGTCHLSDSHKDGFSCSCPLGFEGQRCEINPDDCEDNDCENNATCVDGINNYVCICPPNYTGELCDEVIDHCVPELNLCQHEAKCIPLDKGFSCECVPGYSGKLCETDNDDCVAHKCRHGAQCVDTINGYTCTCPQGFSGPFCEHPPPMVLLQTSPCDQYECQNGAQCIVVQQEPTCRCPPGFAGPRCEKLITVNFVGKDSYVELASAKVRPQANISLQVATDKDNGILLYKGDNDPLALELYQGHVRLVYDSLSSPPTTVYSVETVNDGQFHSVELVTLNQTLNLVVDKGTPKSLGKLQKQPAVGINSPLYLGGIPTSTGLSALRQGTDRPLGGFHGCIHEVRINNELQDFKALPPQSLGVSPGCKSCTVCKHGLCRSVEKDSVVCECRPGWTGPLCDQEARDPCLGHRCHHGKCVATGTSYMCKCAEGYGGDLCDNKNDSANACSAFKCHHGQCHISDQGEPYCLCQPGFSGEHCQQENPCLGQVVREVIRRQKGYASCATASKVPIMECRGGCGPQCCQPTRSKRRKYVFQCTDGSSFVEEVERHLECGCLACS
Interaction with viral protein [1]: NS3
IMAP Y2H IMAP1 (number of IST) ([2]; HCV protein NS3 as bait): 4
Y2H matrices (HCV proteins; [3]): +

B5: SRPX2 (protein, UniProt O60687 24-465, looked up)
Sushi repeat-containing …: TWYAGSGYYPDESYNEVYAEEVPQAPALDYRVPRWCYTLNIQDGEATCYSPKGGNYHSSLGTRCELSCDRGFRLIGRRSVQCLPSRRWSGTAYCRQMRCHALPFITSGTYTCTNGVLLDSRCDYSCSSGYHLEGDRSRICMEDGRWSGGEPVCVDIDPPKIRCPHSREKMAEPEKLTARVYWDPPLVKDSADGTITRVTLRGPEPGSHFPEGEHVIRYTAYDRAYNRASCKFIVKVQVRRCPTLKPPQHGYLTCTSAGDNYGATCEYHCDGGYDRQGTPSRVCQSSRQWSGSPPICAPMKINVNVNSAAGLLDQFYEKQRLLIISAPDPSNRYYKMQISMLQQSTCGLDLRHVTIIELVGQPPQEVGRIREQQLSANIIEELRQFQRLTRSYFNMVLIDKQGIDRDRYMEPVTPEEIFTFIDDYLLSNQELTQRREQRDICE
Interaction with viral protein [1]: NS3
IMAP Y2H IMAP1 (number of IST) ([2]; HCV protein NS3 as bait): 1
Y2H matrices (HCV proteins; [3]): +

B6: SLIT2 (protein, UniProt O94813 31-1529, looked up)
Slit homolog 2 protein: QCSCSGSTVDCHGLALRSVPRNIPRNTERLDLNGNNITRITKTDFAGLRHLRVLQLMENKISTIERGAFQDLKELERLRLNRNHLQLFPELLFLGTAKLYRLDLSENQIQAIPRKAFRGAVDIKNLQLDYNQISCIEDGAFRALRDLEVLTLNNNNITRLSVASFNHMPKLRTFRLHSNNLYCDCHLAWLSDWLRQRPRVGLYTQCMGPSHLRGHNVAEVQKREFVCSGHQSFMAPSCSVLHCPAACTCSNNIVDCRGKGLTEIPTNLPETITEIRLEQNTIKVIPPGAFSPYKKLRRIDLSNNQISELAPDAFQGLRSLNSLVLYGNKITELPKSLFEGLFSLQLLLLNANKINCLRVDAFQDLHNLNLLSLYDNKLQTIAKGTFSPLRAIQTMHLAQNPFICDCHLKWLADYLHTNPIETSGARCTSPRRLANKRIGQIKSKKFRCSAKEQYFIPGTEDYRSKLSGDCFADLACPEKCRCEGTTVDCSNQKLNKIPEHIPQYTAELRLNNNEFTVLEATGIFKKLPQLRKINFSNNKITDIEEGAFEGASGVNEILLTSNRLENVQHKMFKGLESLKTLMLRSNRITCVGNDSFIGLSSVRLLSLYDNQITTVAPGAFDTLHSLSTLNLLANPFNCNCYLAWLGEWLRKKRIVTGNPRCQKPYFLKEIPIQDVAIQDFTCDDGNDDNSCSPLSRCPTECTCLDTVVRCSNKGLKVLPKGIPRDVTELYLDGNQFTLVPKELSNYKHLTLIDLSNNRISTLSNQSFSNMTQLLTLILSYNRLRCIPPRTFDGLKSLRLLSLHGNDISVVPEGAFNDLSALSHLAIGANPLYCDCNMQWLSDWVKSEYKEPGIARCAGPGEMADKLLLTTPSKKFTCQGPVDVNILAKCNPCLSNPCKNDGTCNSDPVDFYRCTCPYGFKGQDCDVPIHACISNPCKHGGTCHLKEGEEDGFWCICADGFEGENCEVNVDDCEDNDCENNSTCVDGINNYTCLCPPEYTGELCEEKLDFCAQDLNPCQHDSKCILTPKGFKCDCTPGYVGEHCDIDFDDCQDNKCKNGAHCTDAVNGYTCICPEGYSGLFCEFSPPMVLPRTSPCDNFDCQNGAQCIVRINEPICQCLPGYQGEKCEKLVSVNFINKESYLQIPSAKVRPQTNITLQIATDEDSGILLYKGDKDHIAVELYRGRVRASYDTGSHPASAIYSVETINDGNFHIVELLALDQSLSLSVDGGNPKIITNLSKQSTLNFDSPLYVGGMPGKSNVASLRQAPGQNGTSFHGCIRNLYINSELQDFQKVPMQTGILPGCEPCHKKVCAHGTCQPSSQAGFTCECQEGWMGPLCDQRTNDPCLGNKCVHGTCLPINAFSYSCKCLEGHGGVLCDEEEDLFNPCQAIKCKHGKCRLSGLGQPYCECSSGYTGDSCDREISCRGERIRDYYQKQQGYAACQTTKKVSRLECRGGCAGGQCCGPLRSKRRKYSFECTDGSSFVDEVEKVVKCGCTRCVS
Interaction with viral protein [1]: NS3
IMAP Y2H IMAP1 (number of IST) ([2]; HCV protein NS3 as bait): 5
IMAP Y2H IMAP1 (number of IST) ([2]; HCV protein p7 as bait): 1
Y2H matrices (HCV proteins; interaction with HCV protein p7): +
Y2H matrices (HCV proteins; [3]): +
